In the supplement of paper PMC7877785:
± gives the uncertainty stated by the source.

Assay: self-splicing fitness, log relative to wild type (ln ratio); higher = more splicing; Tetrahymena group I intron in knt gene, E. coli kanamycin selection, DiMSum; sequences stand for … in CUCUCU…GGAGGGAAAAGUUAUCAGGCAUGCACCUGGUAGCUAGUCUUUAAACCAAUAGAUUGCAUCGGUUUAAAAGGCAAGACCGUCAAAUUGCGGGAAAGGGGUCAACAGCCGUUCAGUACCAAGUCUCAGGGGAAACUUUGAGAUGGCCUUGCAAAGGGUAUGGUAAUAAGCUGACGGACAUGGUCCUAACCACGCAGCCAAGUCCUAAGUCAACAGAUCUUCUGUUGAUAUGGAUGCAGUUCACAGACUAAAUGUCGGUCGGGGAAGAUGUAUUCUUCUCAUAAGAUAUAGUCGGACCUCUCCUUAAUGGGAGCUAGCGGAUGAAGUGAUGCAACACUGGAGCCGCUGGGAACUAAUUUGUAUGCGAAAGUAUAUUGAUUAGUUUUGGAGUACUCGUGGUCG
Procedure, shortened: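 Colonies from six replicate transformations of E. coli BL21(DE3) were pooled and amplicon-sequenced on an Illumina HiSeq 2500. The library placed an intron with all eight P1ex-region nucleotides randomised inside the knt kanamycin-resistance gene on pET-22b(+), and cells grew overnight at 37°C or 30°C on LB agar with or without 25 μg/mL kanamycin (plus 100 μg/mL carbenicillin, 50 μM IPTG, 0.2% rhamnose). Fitness is the DiMSum error-weighted combination of wild-type-normalised replicate fold changes, kanamycin versus none.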

Sequence | self-splicing fitness (ln) (30 °C) | self-splicing fitness (ln) (37 °C)
UCAAAGCAAUAUUACGGGCU | -2.34 ± 0.11 | -2.55 ± 0.14
UCAAAGCAAUAUUACGGGUU | -3.13 ± 0.15 | -2.59 ± 0.15
UCAAAGCAAUAUUACGGUUA | -1.04 ± 0.092 | -0.132 ± 0.087
UCAAAGCAAUAUUACGUAGU | -3.63 ± 0.21 | -1.69 ± 0.17
UCAAAGCAAUAUUACGUCAC | -3.89 ± 0.36 | -3.01 ± 0.4
UCAAAGCAAUAUUACGUCGG | -0.93 ± 0.056 | -0.055 ± 0.079
UCAAAGCAAUAUUACGUCUU | -4.01 ± 0.18 | -3.03 ± 0.17
UCAAAGCAAUAUUACGUGAG | -0.64 ± 0.046 | -0.25 ± 0.071
UCAAAGCAAUAUUACGUGCA | -0.542 ± 0.048 | 0.0292 ± 0.065
UCAAAGCAAUAUUACGUUCU | -3.76 ± 0.26 | -2.87 ± 0.22
UCACAGCAAUAUUACGAAUA | -2.68 ± 0.14 | -1.44 ± 0.11
UCACAGCAAUAUUACGACCG | -0.795 ± 0.11 | 0.149 ± 0.12
UCACAGCAAUAUUACGACGU | -3.44 ± 0.16 | -3.53 ± 0.26
UCACAGCAAUAUUACGAGGU | -4.27 ± 0.36 | -2.54 ± 0.22
UCACAGCAAUAUUACGCAAC | – | -3.26 ± 0.39
UCACAGCAAUAUUACGCACC | -2.35 ± 0.3 | –
UCACAGCAAUAUUACGCACU | -2.56 ± 0.17 | -2.8 ± 0.24
UCACAGCAAUAUUACGCAGC | -3.29 ± 0.2 | -2.62 ± 0.25
UCACAGCAAUAUUACGGAAG | -3.85 ± 0.23 | -2.3 ± 0.17
UCACAGCAAUAUUACGGACC | – | -2.14 ± 0.29

Sequence | self-splicing fitness (ln) (30 °C) | self-splicing fitness (ln) (37 °C)
UCACAGCAAUAUUACGGCAA | -1.38 ± 0.1 | -1.42 ± 0.097
UCACAGCAAUAUUACGGCGG | -0.848 ± 0.056 | 0.0491 ± 0.078
UCACAGCAAUAUUACGGGGC | -4.05 ± 0.21 | -2.4 ± 0.15
UCACAGCAAUAUUACGGUAU | -3.42 ± 0.19 | -3.05 ± 0.18
UCACAGCAAUAUUACGGUGC | -3.04 ± 0.18 | -1.47 ± 0.14
UCACAGCAAUAUUACGUAAC | -3.69 ± 0.12 | -2.79 ± 0.14
UCACAGCAAUAUUACGUCGU | -3.62 ± 0.19 | -1.49 ± 0.22
UCACAGCAAUAUUACGUCUG | -3.02 ± 0.13 | -0.735 ± 0.11
UCACAGCAAUAUUACGUGGA | -2.51 ± 0.095 | -2.36 ± 0.1
UCACAGCAAUAUUACGUGGC | -3.08 ± 0.18 | -2.83 ± 0.26
UCACAGCAAUAUUACGUUUU | -3.72 ± 0.14 | -3.09 ± 0.15
UCAGAGCAAUAUUACGAAUA | -2.84 ± 0.32 | -2.14 ± 0.38
UCAGAGCAAUAUUACGAAUG | -1.78 ± 0.24 | -2.76 ± 0.38
UCAGAGCAAUAUUACGAGCC | – | -2.18 ± 0.4
UCAGAGCAAUAUUACGAGGG | -2.95 ± 0.16 | -1.94 ± 0.16
UCAGAGCAAUAUUACGAGGU | -3 ± 0.29 | -2.5 ± 0.32
UCAGAGCAAUAUUACGAGUA | -3.89 ± 0.46 | -1.01 ± 0.14
UCAGAGCAAUAUUACGAGUC | -3.39 ± 0.35 | -3.09 ± 0.21
UCAGAGCAAUAUUACGAUGC | -3.8 ± 0.32 | -1.68 ± 0.24
